In article PMC5458078, “Global mapping of CARM1 substrates defines enzyme specificity and substrate recognition” (Nature Communications, 2017):

B1: CARM1 28–608: CARM1 28–608 lacks the first, unstructured 28 residues (protein)
chain: TVSVFPGARLLTIGDANGEIQRHAEQQALRLEVRAGPDSAGIALYSHEDVCVFKCSVSRETECSRVGKQSFIITLGCNSVLIQFATPNDFCSFYNILKTCRGHTLERSVFSERTEESSAVQYFQFYGYLSQQQNMMQDYVRTGTYQRAILQNHTDFKDKIVLDVGCGSGILSFFAAQAGARKIYAVEASTMAQHAEVLVKSNNLTDRIVVIPGKVEEVSLPEQVDIIISEPMGYMLFNERMLESYLHAKKYLKPSGNMFPTIGDVHLAPFTDEQLYMEQFTKANFWYQPSFHGVDLSALRGAAVDEYFRQPVVDTFDIRILMAKSVKYTVNFLEAKEGDLHRIEIPFKFHMLHSGLVHGLAFWFDVAFIGSIMTVWLSTAPTEPLTHWYQVRCLFQSPLFAKAGDTLSGTCLLIANKRQSYDISIVAQVDQTGSKSSNLLDLKNPFFRYTGTTPSPPPGSHYTSPSENMWNTGSTYNLSSGMAVAGMPTAYDLSSVIASGSSVGHNNLIPLANTGIVNHTHSRMGSIMSTGIVQGSSGAQGSGGGSTSAHYAVNSQFTMGGPAISMASPMSIPTNTMHYGS
modifications: left off: FLAG, end not stated, kept
notes: CARM1 28–608 lacks the first, unstructured 28 residues
B2: CARM1 FL: full-length CARM1, contained 608 residues (protein)
chain: MAAAAAAVGPGAGGAGSAVPGGAGPCATVSVFPGARLLTIGDANGEIQRHAEQQALRLEVRAGPDSAGIALYSHEDVCVFKCSVSRETECSRVGKQSFIITLGCNSVLIQFATPNDFCSFYNILKTCRGHTLERSVFSERTEESSAVQYFQFYGYLSQQQNMMQDYVRTGTYQRAILQNHTDFKDKIVLDVGCGSGILSFFAAQAGARKIYAVEASTMAQHAEVLVKSNNLTDRIVVIPGKVEEVSLPEQVDIIISEPMGYMLFNERMLESYLHAKKYLKPSGNMFPTIGDVHLAPFTDEQLYMEQFTKANFWYQPSFHGVDLSALRGAAVDEYFRQPVVDTFDIRILMAKSVKYTVNFLEAKEGDLHRIEIPFKFHMLHSGLVHGLAFWFDVAFIGSIMTVWLSTAPTEPLTHWYQVRCLFQSPLFAKAGDTLSGTCLLIANKRQSYDISIVAQVDQTGSKSSNLLDLKNPFFRYTGTTPSPPPGSHYTSPSENMWNTGSTYNLSSGMAVAGMPTAYDLSSVIASGSSVGHNNLIPLANTGIVNHTHSRMGSIMSTGIVQGSSGAQGSGGGSTSAHYAVNSQFTMGGPAISMASPMSIPTNTMHYGS
modifications: left off: FLAG, end not stated, kept
notes: full-length CARM1, contained 608 residues

Tests used:
HEK293T cells = test: Western blot of FLAG-tagged TET2 with ADMA antibodies, wild type vs CARM1 KO; type: cell-based
Description: TET2, methylcytosine dioxygenase with a prominent role in DNA demethylation frequently mutated in various human cancers, was identified among novel CARM1 substrates. To assure its correct identification, we probed FLAG-tagged TET2 with ADMA antibody in wild type and CARM1 KO HEK293T cells (Fig. 2c).
(§1) Cells were collected by trypsinization, washed with Dulbecco's phosphate buffer saline (Life Technologies, Carlsbad, CA) and lysed by suspension in lysis buffer (50 mM Tris-HCl pH 8.0, 150 mM NaCl, 10% glycerol, 0.5% Triton X-100 and 1 × protease inhibitor cocktail (Sigma-Aldrich)). After brief sonication followed by centrifugation, total protein was quantified using the BioRad Protein Assay (BioRad, Hercules, CA), and 20 μg protein was resolved by SDS–PAGE. Proteins were transferred to a nitrocellulose membrane for 1.5 h at 350 mA. Membranes were blocked with 5% nonfat milk at room temperature for 1 h and incubated overnight with diluted primary antibody at 4 °C. Membranes were then washed and incubated with HRP-conjugated secondary antibody for 1 h at room temperature. Signal was visualized by enhanced chemiluminescence reagents (Thermo Scientific, Rockford, IL) and X-ray film exposure followed by scanning and digitalization. Me-PABP1 and PABP1 antibodies, me-BAF155 antibody[20] and me-MED12 antibody[30] were generated previously in the Xu lab. […]

[1] = test system: BAF155, MED12, PABP1, NCOA3 and TET2; test: Co-immunoprecipitation of BAF155, MED12, PABP1, NCOA3 and TET2 with FLAG-tagged CARM1, western blot; type: cell-based; conditions: FLAG-tagged construct transiently transfected in HEK293T CARM1 KO cells; anti-FLAG IP
Excerpt: The structure of the N-terminal domain of CARM1 (residues 28–140) resembles those of the EVH1 domains, a subfamily of PH domains that bind proline-rich sequences. With our discovery that CARM1 substrates contain proline-rich motifs, we posited that the protein's N-terminal domain may be required for substrate recognition. To test this hypothesis, we generated three CARM1 constructs: one full-length (CARM1 FL) and two N-terminal truncations CARM1 28–608 and CARM1 140–608 (Fig. 3a). […] We transiently transfected the three FLAG-tagged CARM1 fusion constructs in HEK293T CARM1 KO cells. CARM1 was immunoprecipitated from all three cell lines using anti-FLAG M2 resin, and four known CARM1 substrates/interactors (that is, BAF155 (ref. [20]), MED12 (ref. [30]), PABP1 (ref. [36]) and NCOA3 (ref. [19])) and newly identified TET2 were detected by western blotting. […] To globally assess the magnitude of reduction in CARM1–substrate interactions induced by the loss of the EVH1 domain, we visualized overall protein changes in CARM1 immunoprecipitates by western blotting using the ADMA antibody (Fig. 3c).
as §1, with “digitalization.” for “digitalization. Me-PABP1 and PABP1 antibodies, me-BAF155 antibody[20] and me-MED12 antibody[30] were generated previously in the Xu lab.”

[2] = test system: recombinant full-length BAF155 protein; test: In vitro methylation of full-length FLAG-BAF155 by recombinant CARM1 proteins, autoradiography; type: biochemical; conditions: 3H-SAM, 50 mM Tris-HCl pH 8.0, 100 mM NaCl, 0.5 mM EDTA, 1–4 h, 30 °C
Description: The FL and N-terminal domain-deleted version of human CARM1 cDNAs, and other PRMT FL cDNAs were cloned into pFN21K Halo Tag CMV Flexi mammalian expression vector (Promega, Madison, WI) using the unique Sgfl and Pmel site[55]. To express the protein, DNA constructs were transiently transfected into HEK293T CARM1 KO cells in 15 cm dishes using transIT-LT1 reagent (Mirus Bio, Madison, WI) according to the manufacturer's protocol. Proteins were allowed to express for 48 h. Cell pellets were then collected and lysed in lysis buffer (50 mM HEPES, pH 7.5, 150 mM NaCl, 0.005% NP-40, 0.5 mM EDTA, supplemented with 1 × protease inhibitor cocktail before use). The cells were sonicated on ice using a Branson Sonifier 450 with a microtip at 35% amplitude (10 s on, 30 s off, 6 cycles). […] The resin was centrifuged at 3,000 r.p.m. for 5 min, and the supernatant containing the cleaved protein was collected and protein concentration was determined using the Bradford assay (Thermo Scientific, Rockford, IL). Protein purity was assessed by running SDS–PAGE and Coomassie Blue staining.
CMX-Flag-BAF155 construct was generated by subcloning a PCR-amplified Flag-BAF155 fragment into the CMX-expression vector. […] Protein concentration was determined using Bradford assay and protein purity was assessed by SDS–PAGE and Coomassie Blue staining. […]

HEK293T CARM1 KO cells [3] = test: Rescue of endogenous BAF155 and MED12 methylation, transient transfection, western blot; type: cell-based; conditions: transient expression in HEK293T CARM1 KO cells
Description: (§2) Next, we transiently transfected FL and the two aforementioned CARM1 truncations in HEK293T CARM1 KO cells and measured substrate methylation by western blotting with ADMA antibodies.
Cells were collected by trypsinization, washed with Dulbecco's phosphate buffer saline (Life Technologies, Carlsbad, CA) and lysed by suspension in lysis buffer (50 mM Tris-HCl pH 8.0, 150 mM NaCl, 10% glycerol, 0.5% Triton X-100 and 1 × protease inhibitor cocktail (Sigma-Aldrich)). After brief sonication followed by centrifugation, total protein was quantified using the BioRad Protein Assay (BioRad, Hercules, CA), and 20 μg protein was resolved by SDS–PAGE. Proteins were transferred to a nitrocellulose membrane for 1.5 h at 350 mA. Membranes were blocked with 5% nonfat milk at room temperature for 1 h and incubated overnight with diluted primary antibody at 4 °C. Membranes were then washed and incubated with HRP-conjugated secondary antibody for 1 h at room temperature. Signal was visualized by enhanced chemiluminescence reagents (Thermo Scientific, Rockford, IL) and X-ray film exposure followed by scanning and digitalization. Me-PABP1 and PABP1 antibodies, me-BAF155 antibody[20] and me-MED12 antibody[30] were generated previously in the Xu lab. FLAG antibody (catalogue #F7425) was purchased from Sigma and used at a dilution of 1:5,000; BAF155 antibody (sc-10756) was purchased from Santa Cruz and used at a dilution of 1:1,000; MED12 antibody (ab70842) was purchased from Abcam (Cambridge, MA) and used at 1:1,000 dilution.

HEK293T CARM1 KO cells [4] = test: Total ADMA levels after transient transfection, western blot; type: cell-based; conditions: transient expression in HEK293T CARM1 KO cells
Description: as §2, §1

Row | Molecule | ADMA modification of TET2 in the absence of CARM1 (HEK293T cells) | Co-precipitation of BAF155, MED12, PABP1, NCOA3 and TET2 [1] | Methylation of full-length BAF155 [2] | Methylation of endogenous BAF155 and MED12 (HEK293T CARM1 KO cells [3]) | Total levels of ADMA modification (HEK293T CARM1 KO cells [4])
1 | TET2: FLAG-tagged TET2, methylcytosine dioxygenase | complete disappearance of ADMA modification on TET2 |  |  |  | 
2 | B1 |  | all five proteins were co-precipitated | methylated recombinant full-length BAF155 protein | methylation of endogenous BAF155 and MED12 was restored | recovered to the level of parental cells
3 | B2 |  | all five proteins were co-precipitated | methylated recombinant full-length BAF155 protein | methylation of endogenous BAF155 and MED12 was restored | recovered to the level of parental cells
